Assay results as given in US11833164B2, “Methods of treating Fabry disease in patients having a mutation in the GLA gene” (Amicus Therapeutics, Inc., priority 2019, dated 2023).
Changes are numbered by the printed parent chain. Names and notes keep the numbering of the source.

Test system: mutant form of α-Gal A expressed in HEK-293 cells
Assay: HEK assay (GLP HEK / Migalastat Amenability Assay): α-Gal A activity in lysates of transiently transfected HEK-293 cells incubated with or without 10 μM migalastat
Assay type: cell-based, human
Settings: for Absolute increase (% WT): 10 μM migalastat versus baseline; for Relative increase: 10 μM migalastat α-Gal A activity relative to baseline; for 10 μM migalastat α-Gal A activity (% WT): 5 days; for 10 μM migalastat α-Gal A activity (% WT) / Baseline α-Gal A activity (% WT): percentage of baseline wild-type α-Gal A activity; for 10 μM migalastat α-Gal A activity (% WT) / Baseline α-Gal A activity (% WT) / Baseline α-Gal A activity / 10 μM migalastat α-Gal A activity: mean ± SEM; for Baseline α-Gal A activity (% WT): absence of migalastat; for Baseline α-Gal A activity / 10 μM migalastat α-Gal A activity: lysates of HEK-293 cells transfected with the mutant form; for Baseline α-Gal A activity: incubated 5 days in the absence of migalastat; for 10 μM migalastat α-Gal A activity: incubated 5 days with 10 μM migalastat
Procedure, shortened: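 Activity reported as 4-MU released (nmol/mg/hr), mean±SEM, from lysates of transiently transfected HEK-293 cells expressing mutant α-Gal A, cultured with or without 10 μM migalastat.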

B1: F169Y (protein)
chain: MQLRNPELHLGCALALRFLALVSWDIPGARALDNGLARTPTMGWLHWERFMCNLDCQEEPDSCISEKLFMEMAELMVSEGWKDAGYEYLCIDDCWMAPQRDSEGRLQADPQRFPHGIRQLANYVHSKGLKLGIYADVGNKTCAGFPGSFGYYDIDAQTFADWGVDLLKYDGCYCDSLENLADGYKHMSLALNRTGRSIVYSCEWPLYMWPFQKPNYTEIRQYCNHWRNFADIDDSWKSIKSILDWTSFNQERIVDVAGPGGWNDPDMLVIGNFGLSWNQQVTQMALWAIMAAPLFMSNDLRHISPQAKALLQDKDVIAINQDPLGKQGYQLRQGDNFEVWERPLSGLAWAVAMINRQEIGGPRSYTIAVASLGKGVACNPACFITQLLPVKRKLGFYEWTSRLRSHINPTGTVLLQLENTMQMSLKDLL
  Absolute increase (% WT): 30.2 % WT
  Relative increase: 1.6
  10 μM migalastat α-Gal A activity (% WT): 75.5 ± 3.6 % WT
  Baseline α-Gal A activity (% WT): 45.3 ± 2.8 % WT
  Baseline α-Gal A activity: 14358 ± 1768 nmol/mg/h
  10 μM migalastat α-Gal A activity: 23459 ± 2391 nmol/mg/h

B2: D175Y (protein)
chain: B1 chain with Y169F, D175Y
  Absolute increase (% WT): 22.9 % WT
  Relative increase: 1.8
  10 μM migalastat α-Gal A activity (% WT): 52.3 ± 1.9 % WT
  Baseline α-Gal A activity (% WT): 29.4 ± 2.4 % WT
  Baseline α-Gal A activity: 8991 ± 838 nmol/mg/h
  10 μM migalastat α-Gal A activity: 15923 ± 778 nmol/mg/h

B3: Y173F (protein)
chain: B1 chain with Y169F, Y173F
  Absolute increase (% WT): 21.2 % WT
  Relative increase: 1.3
  10 μM migalastat α-Gal A activity (% WT): 97.7 ± 4.7 % WT
  Baseline α-Gal A activity (% WT): 76.5 ± 4.2 % WT
  Baseline α-Gal A activity: 26479 ± 1523 nmol/mg/h
  10 μM migalastat α-Gal A activity: 33158 ± 657 nmol/mg/h

B4: Y173S (protein)
chain: B1 chain with Y169F, Y173S
  Absolute increase (% WT): 14.8 % WT
  Relative increase: 1.2
  10 μM migalastat α-Gal A activity (% WT): 76.2 ± 3.3 % WT
  Baseline α-Gal A activity (% WT): 61.4 ± 3.3 % WT
  Baseline α-Gal A activity: 21751 ± 1625 nmol/mg/h
  10 μM migalastat α-Gal A activity: 26270 ± 994 nmol/mg/h

B5: D175G (protein)
chain: B1 chain with Y169F, D175G
  Absolute increase (% WT): 18.1 % WT
  Relative increase: 1.2
  10 μM migalastat α-Gal A activity (% WT): 92.8 ± 6.2 % WT
  Baseline α-Gal A activity (% WT): 74.7 ± 6.7 % WT
  Baseline α-Gal A activity: 23065 ± 2315 nmol/mg/h
  10 μM migalastat α-Gal A activity: 28273 ± 1968 nmol/mg/h

B6: L177V (protein)
chain: B1 chain with Y169F, L177V
  Absolute increase (% WT): 22.9 % WT
  Relative increase: 1.3
  10 μM migalastat α-Gal A activity (% WT): 91.8 ± 2.8 % WT
  Baseline α-Gal A activity (% WT): 68.9 ± 3.2 % WT
  Baseline α-Gal A activity: 23616 ± 1282 nmol/mg/h
  10 μM migalastat α-Gal A activity: 31347 ± 1132 nmol/mg/h

B7: G171V (protein)
chain: B1 chain with Y169F, G171V
  Absolute increase (% WT): 6.4 % WT
  Relative increase: 3.6
  10 μM migalastat α-Gal A activity (% WT): 9.2 ± 0.9 % WT
  Baseline α-Gal A activity (% WT): 2.8 ± 0.2 % WT
  Baseline α-Gal A activity: 856 ± 62 nmol/mg/h
  10 μM migalastat α-Gal A activity: 3111 ± 411 nmol/mg/h

B8: S176C (protein)
chain: B1 chain with Y169F, S176C
  Absolute increase (% WT): 16.2 % WT
  Relative increase: 1.2
  10 μM migalastat α-Gal A activity (% WT): 79.5 ± 5.1 % WT
  Baseline α-Gal A activity (% WT): 63.3 ± 3.9 % WT
  Baseline α-Gal A activity: 20097 ± 1126 nmol/mg/h
  10 μM migalastat α-Gal A activity: 24777 ± 960 nmol/mg/h

B9: D175H (protein)
chain: B1 chain with Y169F, D175H
  Absolute increase (% WT): 26.4 % WT
  Relative increase: 1.4
  10 μM migalastat α-Gal A activity (% WT): 87.1 ± 3.9 % WT
  Baseline α-Gal A activity (% WT): 60.7 ± 3.4 % WT
  Baseline α-Gal A activity: 18529 ± 1174 nmol/mg/h
  10 μM migalastat α-Gal A activity: 26201 ± 994 nmol/mg/h

B10: Y173H (protein)
chain: B1 chain with Y169F, Y173H
  Absolute increase (% WT): 18.3 % WT
  Relative increase: 1.3
  10 μM migalastat α-Gal A activity (% WT): 80.2 ± 4.6 % WT
  Baseline α-Gal A activity (% WT): 61.9 ± 3.4 % WT
  Baseline α-Gal A activity: 21234 ± 879 nmol/mg/h
  10 μM migalastat α-Gal A activity: 27455 ± 1147 nmol/mg/h

B11: Y173C (protein)
chain: B1 chain with Y169F, Y173C
  Absolute increase (% WT): 29.3 % WT
  Relative increase: 1.6
  10 μM migalastat α-Gal A activity (% WT): 80.5 ± 3.3 % WT
  Baseline α-Gal A activity (% WT): 51.1 ± 3.6 % WT
  Baseline α-Gal A activity: 17669 ± 1240 nmol/mg/h
  10 μM migalastat α-Gal A activity: 27924 ± 1225 nmol/mg/h

B12: S176R (protein)
chain: B1 chain with Y169F, S176R
  Absolute increase (% WT): 22.0 % WT
  Relative increase: 1.3
  10 μM migalastat α-Gal A activity (% WT): 88.3 ± 3.3 % WT
  Baseline α-Gal A activity (% WT): 66.3 ± 2 % WT
  Baseline α-Gal A activity: 22675 ± 886 nmol/mg/h
  10 μM migalastat α-Gal A activity: 30159 ± 1226 nmol/mg/h

B13: L177S (protein)
chain: B1 chain with Y169F, L177S
  Absolute increase (% WT): 35.9 % WT
  Relative increase: 1.7
  10 μM migalastat α-Gal A activity (% WT): 87.2 ± 4.5 % WT
  Baseline α-Gal A activity (% WT): 51.4 ± 1.7 % WT
  Baseline α-Gal A activity: 17445 ± 533 nmol/mg/h
  10 μM migalastat α-Gal A activity: 29868 ± 1909 nmol/mg/h

B14: L177M (protein)
chain: B1 chain with Y169F, L177M
  Absolute increase (% WT): 27.9 % WT
  Relative increase: 1.4
  10 μM migalastat α-Gal A activity (% WT): 97.4 ± 2.7 % WT
  Baseline α-Gal A activity (% WT): 69.5 ± 2.3 % WT
  Baseline α-Gal A activity: 23730 ± 946 nmol/mg/h
  10 μM migalastat α-Gal A activity: 33080 ± 829 nmol/mg/h

B15: G171A (protein)
chain: B1 chain with Y169F, G171A
  Absolute increase (% WT): 26.4 % WT
  Relative increase: 1.4
  10 μM migalastat α-Gal A activity (% WT): 84 ± 5.7 % WT
  Baseline α-Gal A activity (% WT): 57.6 ± 2.8 % WT
  Baseline α-Gal A activity: 19081 ± 1801 nmol/mg/h
  10 μM migalastat α-Gal A activity: 27514 ± 2486 nmol/mg/h

B16: L177F (protein)
chain: B1 chain with Y169F, L177F
  Absolute increase (% WT): 38.7 % WT
  Relative increase: 1.9
  10 μM migalastat α-Gal A activity (% WT): 84 ± 2.3 % WT
  Baseline α-Gal A activity (% WT): 45.3 ± 2.1 % WT
  Baseline α-Gal A activity: 15605 ± 911 nmol/mg/h
  10 μM migalastat α-Gal A activity: 28893 ± 1210 nmol/mg/h

B17: D175V (protein)
chain: B1 chain with Y169F, D175V
  Absolute increase (% WT): 19.7 % WT
  Relative increase: 1.6
  10 μM migalastat α-Gal A activity (% WT): 53.5 ± 2.5 % WT
  Baseline α-Gal A activity (% WT): 33.7 ± 2.2 % WT
  Baseline α-Gal A activity: 10430 ± 915 nmol/mg/h
  10 μM migalastat α-Gal A activity: 16384 ± 1039 nmol/mg/h

B18: L177W (protein)
chain: B1 chain with Y169F, L177W
  Absolute increase (% WT): 37.6 % WT
  Relative increase: 1.7
  10 μM migalastat α-Gal A activity (% WT): 88.2 ± 2 % WT
  Baseline α-Gal A activity (% WT): 50.5 ± 2.6 % WT
  Baseline α-Gal A activity: 17321 ± 1025 nmol/mg/h
  10 μM migalastat α-Gal A activity: 30075 ± 867 nmol/mg/h
